Reference: article PMC9482650, “Quantitative fragmentomics allow affinity mapping of interactomes” (Nature Communications, 2022)
Values belong to the binder of their own block, whether it stands above or below them.

Assays:
Assay in all cases: holdup assay
Parameters in all cases: key: below the threshold = too weak to quantify, mostly under pKd 3.1 to 4
PARD3B_1, Q8TEW8 = molecular target: T1, PARD3B_1, Q8TEW8
T1 sequence (Q8TEW8 196-299, limits assumed, looked up): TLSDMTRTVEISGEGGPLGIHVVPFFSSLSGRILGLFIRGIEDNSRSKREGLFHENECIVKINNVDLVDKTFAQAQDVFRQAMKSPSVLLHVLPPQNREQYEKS

HTRA4, P83105 = molecular target: T2, HTRA4, P83105
T2 sequence (P83105 378-476, limits assumed, looked up): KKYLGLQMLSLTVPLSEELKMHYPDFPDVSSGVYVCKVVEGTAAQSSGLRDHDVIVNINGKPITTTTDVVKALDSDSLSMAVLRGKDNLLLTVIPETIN

Inadl_4, Q8NI35 = molecular target: Inadl_4, Q8NI35
Sequence of Inadl_4, Q8NI35 (Q8NI35 547-651): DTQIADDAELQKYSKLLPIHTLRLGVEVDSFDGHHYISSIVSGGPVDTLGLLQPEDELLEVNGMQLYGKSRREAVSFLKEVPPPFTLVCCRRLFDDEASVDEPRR

Inadl_9, Q8NI35 = molecular target: Inadl_9, Q8NI35
Sequence of Inadl_9, Q8NI35 (Q8NI35 1530-1615): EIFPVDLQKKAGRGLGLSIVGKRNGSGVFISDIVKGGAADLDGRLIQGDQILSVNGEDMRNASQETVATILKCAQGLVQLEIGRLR

LRRC7, Q96NW7 = molecular target: T3, LRRC7, Q96NW7
T3 sequence (Q96NW7 1440-1537, limits assumed, looked up): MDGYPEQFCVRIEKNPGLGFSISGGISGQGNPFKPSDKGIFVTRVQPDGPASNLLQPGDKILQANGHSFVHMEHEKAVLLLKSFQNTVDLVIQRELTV

NHERF4_2, Q86UT5 = molecular target: NHERF4_2, Q86UT5
Sequence of NHERF4_2, Q86UT5 (Q86UT5 220-308): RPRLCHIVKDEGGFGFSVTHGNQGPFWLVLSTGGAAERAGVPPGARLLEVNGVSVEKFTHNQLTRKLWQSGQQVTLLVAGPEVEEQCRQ

DLG3_3, Q92796 = molecular target: T4, DLG3_3, Q92796
T4 sequence (Q92796 374-475, limits assumed, looked up): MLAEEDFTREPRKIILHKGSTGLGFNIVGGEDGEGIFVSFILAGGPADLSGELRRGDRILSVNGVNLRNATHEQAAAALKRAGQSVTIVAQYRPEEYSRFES

MAGI2_4, Q86UL8 = molecular target: MAGI2_4, Q86UL8
Sequence of MAGI2_4, Q86UL8 (Q86UL8 772-865): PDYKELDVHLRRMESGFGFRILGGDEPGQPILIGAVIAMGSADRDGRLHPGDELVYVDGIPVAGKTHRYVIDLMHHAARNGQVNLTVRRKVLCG

NOS1, P29475 = molecular target: NOS1, P29475
Sequence of NOS1, P29475 (P29475 9-101): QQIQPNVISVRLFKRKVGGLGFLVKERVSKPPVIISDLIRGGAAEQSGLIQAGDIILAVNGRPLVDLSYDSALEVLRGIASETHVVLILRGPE

SYNJ2BP, P57105 = molecular target: T5, SYNJ2BP, P57105
T5 sequence (P57105 8-110, limits assumed, looked up): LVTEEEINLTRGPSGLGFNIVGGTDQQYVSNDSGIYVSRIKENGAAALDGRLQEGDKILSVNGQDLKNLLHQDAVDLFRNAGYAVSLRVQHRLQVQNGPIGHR

MAGI3_2, Q5TCQ9 = molecular target: MAGI3_2, Q5TCQ9
Sequence of MAGI3_2, Q5TCQ9 (Q5TCQ9 398-503): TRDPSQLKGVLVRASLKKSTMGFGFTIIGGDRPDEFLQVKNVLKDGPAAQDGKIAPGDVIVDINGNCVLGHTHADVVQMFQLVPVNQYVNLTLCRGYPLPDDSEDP

FRMPD2_3, Q68DX3 = molecular target: FRMPD2_3, Q68DX3
Sequence of FRMPD2_3, Q68DX3 (Q68DX3 1073-1166): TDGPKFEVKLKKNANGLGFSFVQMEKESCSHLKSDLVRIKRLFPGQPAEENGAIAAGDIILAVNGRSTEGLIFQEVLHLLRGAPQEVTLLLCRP

LNX2_3, Q8N448 = molecular target: T6, LNX2_3, Q8N448
T6 sequence (Q8N448 463-564, limits assumed, looked up): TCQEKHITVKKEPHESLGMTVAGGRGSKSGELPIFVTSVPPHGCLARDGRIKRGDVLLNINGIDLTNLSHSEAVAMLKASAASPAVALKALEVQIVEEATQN

GOPC, Q9HD26 = molecular target: GOPC, Q9HD26
MAGI1_2, Q96QZ7 = molecular target: MAGI1_2, Q96QZ7
Sequence of MAGI1_2, Q96QZ7 (Q96QZ7 456-580): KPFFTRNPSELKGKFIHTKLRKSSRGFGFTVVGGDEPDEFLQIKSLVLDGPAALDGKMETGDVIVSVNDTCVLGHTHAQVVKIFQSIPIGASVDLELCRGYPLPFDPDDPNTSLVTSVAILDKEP

SHANK1, Q9Y566 = molecular target: T7, SHANK1, Q9Y566
T7 sequence (Q9Y566 658-767, limits assumed, looked up): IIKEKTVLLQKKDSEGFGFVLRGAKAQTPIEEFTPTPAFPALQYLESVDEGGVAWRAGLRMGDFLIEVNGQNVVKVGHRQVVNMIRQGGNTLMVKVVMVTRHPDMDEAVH

GORASP2, Q9H8Y8 = molecular target: GORASP2, Q9H8Y8
DLG2_3, Q15700 = molecular target: DLG2_3, Q15700
MAGI1_1, Q96QZ7 = molecular target: MAGI1_1, Q96QZ7
Sequence of MAGI1_1, Q96QZ7 (Q96QZ7 1-106): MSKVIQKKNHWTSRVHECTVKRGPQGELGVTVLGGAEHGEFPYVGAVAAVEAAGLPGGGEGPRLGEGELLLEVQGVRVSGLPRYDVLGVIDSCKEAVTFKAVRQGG

IL16_4, Q14005 = molecular target: IL16_4, Q14005
Sequence of IL16_4, Q14005 (Q14005 1229-1329): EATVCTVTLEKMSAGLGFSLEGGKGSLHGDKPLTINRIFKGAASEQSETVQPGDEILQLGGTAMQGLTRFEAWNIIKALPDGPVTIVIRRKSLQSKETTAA

IL16_3, Q14005 = molecular target: IL16_3, Q14005
Sequence of IL16_3, Q14005 (Q14005 1107-1207): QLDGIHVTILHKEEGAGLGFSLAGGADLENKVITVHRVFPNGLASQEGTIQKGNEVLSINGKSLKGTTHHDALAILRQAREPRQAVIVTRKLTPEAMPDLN

ARHGAP21, Q5T5U3 = molecular target: T8, ARHGAP21, Q5T5U3
T8 sequence (Q5T5U3 45-169, limits assumed, looked up): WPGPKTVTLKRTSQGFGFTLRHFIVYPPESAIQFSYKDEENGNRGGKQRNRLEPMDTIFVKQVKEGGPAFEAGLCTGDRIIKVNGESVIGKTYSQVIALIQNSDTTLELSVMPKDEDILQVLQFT

PCLO, Q9Y6V0 = molecular target: T9, PCLO, Q9Y6V0
T9 sequence (Q9Y6V0 4491-4600, limits assumed, looked up): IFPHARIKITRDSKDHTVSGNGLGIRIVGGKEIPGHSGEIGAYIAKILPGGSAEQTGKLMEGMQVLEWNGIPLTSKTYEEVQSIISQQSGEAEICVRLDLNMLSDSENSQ

Inadl_6, Q8NI35 = molecular target: Inadl_6, Q8NI35
Sequence of Inadl_6, Q8NI35 (Q8NI35 1058-1167): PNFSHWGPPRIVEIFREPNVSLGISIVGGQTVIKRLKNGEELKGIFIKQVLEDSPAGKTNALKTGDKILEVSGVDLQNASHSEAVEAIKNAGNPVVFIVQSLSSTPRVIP

APBA2_2, Q99767 = molecular target: T10, APBA2_2, Q99767
T10 sequence (Q99767 654-744, limits assumed, looked up): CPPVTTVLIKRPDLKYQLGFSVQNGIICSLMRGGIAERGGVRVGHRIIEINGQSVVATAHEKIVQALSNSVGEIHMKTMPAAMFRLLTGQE

LNX1_3, Q8TBB1 = molecular target: LNX1_3, Q8TBB1
Sequence of LNX1_3, Q8TBB1 (Q8TBB1 500-596): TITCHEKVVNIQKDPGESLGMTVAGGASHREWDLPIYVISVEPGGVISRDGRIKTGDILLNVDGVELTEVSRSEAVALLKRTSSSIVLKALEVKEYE

FRMPD4, Q14CM0 = molecular target: FRMPD4, Q14CM0
Sequence of FRMPD4, Q14CM0 (Q14CM0 67-160): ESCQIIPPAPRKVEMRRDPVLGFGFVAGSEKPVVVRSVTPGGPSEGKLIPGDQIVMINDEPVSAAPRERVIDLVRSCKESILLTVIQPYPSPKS

[1] = plain residues with an end cap or a label only (N-terminal biotin on a linker: ahx)
[2] = plain residues with an end cap or a label only (N-terminal biotin on a linker: ttds)

pKd (PARD3B_1, Q8TEW8; [1]): below the threshold
pKd (HTRA4, P83105; [1]): below the threshold
pKd (Inadl_4, Q8NI35; [1]): below the threshold
pKd (Inadl_9, Q8NI35; [1]): 3.74
pKd (LRRC7, Q96NW7; [1]): 4.94
pKd (NHERF4_2, Q86UT5; [1]): below the threshold
pKd (DLG3_3, Q92796; [1]): below the threshold
pKd (MAGI2_4, Q86UL8; [1]): 4.12
pKd (NOS1, P29475; [1]): 3.85
pKd (SYNJ2BP, P57105; [1]): 5.04
pKd (MAGI3_2, Q5TCQ9; [1]): 3.68
pKd (FRMPD2_3, Q68DX3; [1]): below the threshold
pKd (LNX2_3, Q8N448; [1]): below the threshold
pKd (GOPC, Q9HD26; [1]): below the threshold
pKd (MAGI1_2, Q96QZ7; [1]): below the threshold
pKd (SHANK1, Q9Y566; [1]): below the threshold
pKd (GORASP2, Q9H8Y8; [1]): 4.51
pKd (DLG2_3, Q15700; [1]): 4.06
pKd (MAGI1_1, Q96QZ7; [1]): below the threshold
pKd (IL16_4, Q14005; [1]): below the threshold
pKd (IL16_3, Q14005; [1]): below the threshold
pKd (ARHGAP21, Q5T5U3; [1]): below the threshold
pKd (PCLO, Q9Y6V0; [1]): below the threshold
pKd (Inadl_6, Q8NI35; [1]): 4.33
pKd (APBA2_2, Q99767; [1]): below the threshold
pKd (LNX1_3, Q8TBB1; [1]): below the threshold
pKd (FRMPD4, Q14CM0; [1]): below the threshold
B1: ARVCF, O00192 (peptide)
chain: AKPQPVDSWV

pKd (PARD3B_1, Q8TEW8; [2]): below the threshold
pKd (HTRA4, P83105; [2]): below the threshold
pKd (Inadl_4, Q8NI35; [2]): below the threshold
pKd (Inadl_9, Q8NI35; [2]): 3.98
pKd (LRRC7, Q96NW7; [2]): below the threshold
pKd (NHERF4_2, Q86UT5; [2]): below the threshold
pKd (DLG3_3, Q92796; [2]): below the threshold
pKd (MAGI2_4, Q86UL8; [2]): 4.42
pKd (NOS1, P29475; [2]): 3.92
pKd (SYNJ2BP, P57105; [2]): 4.06
pKd (MAGI3_2, Q5TCQ9; [2]): 4.6
pKd (FRMPD2_3, Q68DX3; [2]): below the threshold
pKd (LNX2_3, Q8N448; [2]): below the threshold
pKd (GOPC, Q9HD26; [2]): 4.14
pKd (MAGI1_2, Q96QZ7; [2]): below the threshold
pKd (SHANK1, Q9Y566; [2]): below the threshold
pKd (GORASP2, Q9H8Y8; [2]): below the threshold
pKd (DLG2_3, Q15700; [2]): 4.01
pKd (MAGI1_1, Q96QZ7; [2]): below the threshold
pKd (IL16_4, Q14005; [2]): below the threshold
pKd (IL16_3, Q14005; [2]): below the threshold
pKd (ARHGAP21, Q5T5U3; [2]): below the threshold
pKd (PCLO, Q9Y6V0; [2]): below the threshold
pKd (Inadl_6, Q8NI35; [2]): 4.3
pKd (APBA2_2, Q99767; [2]): below the threshold
pKd (LNX1_3, Q8TBB1; [2]): below the threshold
pKd (FRMPD4, Q14CM0; [2]): below the threshold
B2: ARHGAP6, O43182 (peptide)
chain: NPDALPETLV
